Source: paper PMC3733885, “Structures of an Apo and a Binary Complex of an Evolved Archeal B Family DNA Polymerase Capable of Synthesising Highly Cy-Dye Labelled DNA”

Molecular target: T1, Pfu-E10 DNA polymerase (evolved Pfu polB variant) (Pyrococcus furiosus, UniProt P61875 1-775, R407I)
T1 sequence: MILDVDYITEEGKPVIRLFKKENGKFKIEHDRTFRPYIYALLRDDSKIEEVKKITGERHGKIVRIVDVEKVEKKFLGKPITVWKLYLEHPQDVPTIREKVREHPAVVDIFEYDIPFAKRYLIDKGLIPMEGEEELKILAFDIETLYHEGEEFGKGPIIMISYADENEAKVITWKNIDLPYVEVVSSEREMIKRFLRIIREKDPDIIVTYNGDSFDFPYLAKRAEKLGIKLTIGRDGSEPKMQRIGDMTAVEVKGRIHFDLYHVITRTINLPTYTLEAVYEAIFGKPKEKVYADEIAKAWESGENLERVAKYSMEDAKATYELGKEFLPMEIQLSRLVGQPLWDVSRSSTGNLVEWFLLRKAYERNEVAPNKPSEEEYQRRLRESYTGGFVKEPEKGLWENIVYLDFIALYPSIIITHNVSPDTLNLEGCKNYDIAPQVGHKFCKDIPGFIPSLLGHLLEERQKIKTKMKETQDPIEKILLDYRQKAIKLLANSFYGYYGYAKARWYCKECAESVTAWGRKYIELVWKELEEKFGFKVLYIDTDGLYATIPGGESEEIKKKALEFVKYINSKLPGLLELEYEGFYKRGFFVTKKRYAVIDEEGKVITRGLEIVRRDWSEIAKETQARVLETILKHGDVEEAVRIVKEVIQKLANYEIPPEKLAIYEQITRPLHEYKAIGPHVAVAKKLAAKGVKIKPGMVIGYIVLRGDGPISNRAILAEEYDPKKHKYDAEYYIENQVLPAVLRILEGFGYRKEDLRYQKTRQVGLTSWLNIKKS
Experiment: X-ray crystallography (2.9 A); binary complex; 10 mM dCTP in crystallisation medium but no dNTP or metal ion seen at active site; Complex: 20 mM Tris, 50 mM NaCl, 5 mM MgCl2, 5% glycerol, 1 mM dCTP, 1:5 protein:DNA, 4 C overnight; crystals: 0.1 M Na cacodylate pH 6.5, 0.1 M Na citrate, 30% isopropanol, 10 mM dCTP
Conditions: protein: recombinant; 5' overhang 3 nt (template)

B1: primer:template duplex (crystal) (dsDNA)
DNA 1: ACGGGTAAGCA
DNA 2: TGCTTACC
modifications: 3'-terminal C of primer is 2',3'-dideoxycytidine (DOC)
B1: binds.
